This note sets out measurements from the Immune Epitope Database (IEDB).

Assay [1] concerns the target HLA-A*31:01. The assay can be described thus: IEDB peptide-MHC binding, purified MHC/competitive/fluorescence; filed as Kd, often an IC50 or EC50 that approximates it; ≥ and ≤ were set here for values at or beyond the usual limits of such assays.
A further assay has as its target HLA-A*03:01. The experiment in a line: IEDB peptide-MHC binding, purified MHC/direct/fluorescence; filed as Kd, often an IC50 or EC50 that approximates it; ≥ and ≤ were set here for values at or beyond the usual limits of such assays.
In assay [2] the target is HLA-A*11:01. Described as above.
Assay [3] concerns the target HLA-A*02:03. The experiment in a line: IEDB peptide-MHC binding, purified MHC/competitive/fluorescence; filed as Kd, often an IC50 or EC50 that approximates it; ≥ and ≤ were set here for values at or beyond the usual limits of such assays. To be noted: source organism: Giardia intestinalis.
Another assay has as its target HLA-B*48:01. The assay can be described thus: IEDB peptide-MHC binding, purified MHC/direct/fluorescence; filed as Kd, often an IC50 or EC50 that approximates it; ≥ and ≤ were set here for values at or beyond the usual limits of such assays. To be noted: source organism: Giardia intestinalis.
The target in assay [4] is HLA-B*18:01. The description is as above. As to conditions: source organism: Giardia intestinalis.
The target of another assay is HLA-B*27:05. Described as above. As to conditions: source organism: Giardia intestinalis.
Assay [5] concerns the target HLA-A*26:01. The assay is described as above. As to conditions: source organism: Giardia lamblia ATCC 50803.
Assay [6] has as its target HLA-A*69:01. Described as above. As to conditions: source organism: Giardia intestinalis.
The target in another assay is HLA-A*01:01. Described as above. To be noted: source organism: Giardia intestinalis.
Assay [7] has as its target HLA-A*31:01. The description is as above. As to conditions: source organism: Giardia intestinalis.
For another assay, the target named is HLA-A*68:02. Described as above.
The target of another assay is HLA-B*58:01. Described as above. As to conditions: source organism: Giardia intestinalis.
Another assay concerns the target HLA-B*40:01. The assay is described as above.
In assay [8] the target is HLA-B*57:01. Described as above. As to conditions: source organism: Giardia intestinalis.
Assay [9] deals with HLA-A*02:01. Described as above. As to conditions: source organism: Giardia intestinalis.
For a further assay, the target named is HLA-B*07:02. The assay is described as above. To be noted: source organism: Giardia intestinalis.
A further assay deals with HLA-B*45:06. The experiment in a line: IEDB peptide-MHC binding, purified MHC/competitive/fluorescence; filed as Kd, often an IC50 or EC50 that approximates it; ≥ and ≤ were set here for values at or beyond the usual limits of such assays.
The target of the next assay is HLA-B*15:42. The description is as above.
The target of the next assay is HLA-B*83:01. The assay is described as above.
Assay [10] concerns the target HLA-B*46:01. The assay can be described thus: IEDB peptide-MHC binding, purified MHC/direct/fluorescence; filed as Kd, often an IC50 or EC50 that approximates it; ≥ and ≤ were set here for values at or beyond the usual limits of such assays. As to conditions: source organism: Yellow fever virus 17D.
Assay [11] has as its target HLA-B*15:01. The assay is described as above. As to conditions: source organism: Yellow fever virus 17D.
Assay [12] addresses HLA-B*18:01. The experiment in a line: IEDB peptide-MHC binding, purified MHC/competitive/fluorescence; filed as Kd, often an IC50 or EC50 that approximates it; ≥ and ≤ were set here for values at or beyond the usual limits of such assays. To be noted: source organism: Four Corners hantavirus.
The target in another assay is HLA-B*51:01. Described as above. As to conditions: source organism: Four Corners hantavirus.
A further assay addresses HLA-B*39:01. The assay is described as above. As to conditions: source organism: Four Corners hantavirus.
The target of assay [13] is HLA-A*26:01. The assay is described as above. To be noted: source organism: Four Corners hantavirus.
In assay [14] the target is HLA-A*69:01. Described as above. As to conditions: source organism: Four Corners hantavirus.
A further assay concerns the target HLA-B*15:17. The assay is described as above. To be noted: source organism: Four Corners hantavirus.
Assay [15] concerns the target HLA-B*46:01. Described as above. As to conditions: source organism: Four Corners hantavirus.
For another assay, the target named is HLA-B*27:03. Described as above. To be noted: source organism: Four Corners hantavirus.
Assay [16] deals with HLA-B*57:01. The description is as above. To be noted: source organism: Four Corners hantavirus.
Assay [17] deals with HLA-A*02:01. The assay is described as above. As to conditions: source organism: Four Corners hantavirus.
Assay [18] has as its target HLA-B*15:01. Described as above. To be noted: source organism: Four Corners hantavirus.
The target of another assay is HLA-A*02:16. The experiment in a line: IEDB peptide-MHC binding, purified MHC/direct/fluorescence; filed as Kd, often an IC50 or EC50 that approximates it; ≥ and ≤ were set here for values at or beyond the usual limits of such assays. To be noted: source organism: Choclo virus.
Assay [19] deals with HLA-A*02:03. The description is as above. To be noted: source organism: Choclo virus.
The target of the next assay is HLA-A*02:11. Described as above. To be noted: source organism: Choclo virus.
For a further assay, the target named is HLA-A*29:02. The description is as above. As to conditions: source organism: Choclo virus.
The target of a further assay is HLA-A*02:19. The description is as above. As to conditions: source organism: Choclo virus.
Another assay concerns the target HLA-A*02:12. The assay is described as above. As to conditions: source organism: Choclo virus.
The target of a further assay is HLA-A*24:03. The assay is described as above. As to conditions: source organism: Choclo virus.
For assay [20], the target named is HLA-A*11:01. The experiment in a line: IEDB peptide-MHC binding, purified MHC/competitive/fluorescence; ≥ and ≤ were set here for values at or beyond the usual limits of such assays.
For another assay, the target named is HLA-A*24:02. The description is as above. As to conditions: source organism: Zaire ebolavirus.
In assay [21] the target is HLA-A*02:01. Described as above. To be noted: source organism: Zaire ebolavirus.
The target in assay [22] is HLA-B*15:01. The assay is described as above. As to conditions: source organism: Zaire ebolavirus.
[23] abbreviates: source organism: Bacillus anthracis.
Setting [24] is: source organism: Giardia intestinalis.
Where [25] appears, read: source organism: Yellow fever virus.
The mark [26] stands for this setting: source organism: Mycobacterium tuberculosis C.
Setting [27] is: source organism: Yersinia pestis Antiqua.

What is called Kd is a measure of binding affinity in units of concentration. High values mean lower affinity, low ones higher affinity. The term IC50 denotes the point on the concentration scale where inhibition reaches its midpoint. A lower IC50 goes with higher potency.

Take RTHLGFIFQ: the dissociation constant Kd in the assay with HLA-A*31:01 [1] (source organism: Bacillus thuringiensis str. Al Hakam), with HLA-A*03:01 (setting [23]) and in the assay with HLA-A*11:01 [2] (setting [23]) was not below 20 µM throughout.

With LEKWNLGII, the Kd was 4.37 µM with HLA-A*02:03 [3]; not below 20 µM in the assay with HLA-B*48:01; 1.14 µM with HLA-B*18:01 [4]; not below 20 µM with HLA-B*27:05; not below 20 µM with HLA-A*26:01 [5]; not below 20 µM in the assay with HLA-A*69:01 [6]. Further, the dissociation constant Kd was not below 20 µM with HLA-A*01:01; not below 20 µM with HLA-A*31:01 [7]; not below 20 µM in the assay with HLA-A*11:01 [2] (setting [24]); not below 20 µM with HLA-A*68:02 (setting [24]); not below 20 µM with HLA-B*58:01; 0.599 µM with HLA-B*40:01 (setting [24]). For the same sequence, the Kd in the assay with HLA-B*57:01 [8], with HLA-A*02:01 [9] and with HLA-B*07:02 was not below 20 µM throughout.

As for AEMGANLCV, the Kd is not below 5 µM with HLA-B*45:06 (setting [25]); not below 5 µM with HLA-B*15:42 (setting [25]); not below 5 µM with HLA-B*83:01 (setting [25]); not below 20 µM with HLA-B*46:01 [10]; not below 20 µM in the assay with HLA-B*15:01 [11].

Turning to VSAAGTTLR, the equilibrium dissociation constant (Kd) is 0.35 µM with HLA-A*31:01 [1] (source organism: Mycobacterium tuberculosis H37Rv) and not below 20 µM with HLA-A*03:01 (source organism: Mycobacterium tuberculosis).

As to PELGAFFAI, the Kd with HLA-B*18:01 [12], in the assay with HLA-B*51:01, with HLA-B*39:01, with HLA-A*26:01 [13], with HLA-A*69:01 [14] and with HLA-B*15:17 was not below 20 µM throughout. The dissociation constant Kd with HLA-B*46:01 [15], with HLA-B*27:03, with HLA-B*57:01 [16], with HLA-A*02:01 [17], with HLA-B*15:01 [18] and with HLA-A*02:16 was not below 20 µM throughout. The Kd in the assay with HLA-A*03:01 (source organism: Choclo virus), with HLA-A*02:03 [19], in the assay with HLA-A*02:11, with HLA-A*29:02, with HLA-A*02:19 and with HLA-A*68:02 (source organism: Choclo virus) was not below 20 µM each time. For the same sequence, the Kd is not below 20 µM with HLA-A*02:12, 0.107 µM in the assay with HLA-B*40:01 (source organism: Itapua hantavirus) and not below 20 µM in the assay with HLA-A*24:03.

Take SARRRHLVF: the equilibrium dissociation constant (Kd) with HLA-B*45:06 (setting [26]), with HLA-B*15:42 (setting [26]) and in the assay with HLA-B*83:01 (setting [26]) was not below 5 µM throughout.

Regarding AAGIAWIPY, in the assay with HLA-A*11:01 [20] (source organism: Sudan ebolavirus), the IC50 is 29.6 µM.

As to KVCRSPAQK, the Kd with HLA-A*31:01 [1] (source organism: Yersinia pestis Nepal516) was 1.64 µM; in the assay with HLA-A*03:01 (setting [27]), 1.81 µM; with HLA-A*11:01 [2] (setting [27]), 0.115 µM.

As for YQGDYKLFL, the half-maximal inhibitory concentration (IC50) in the assay with HLA-A*11:01 [20] (source organism: Zaire ebolavirus) turned out to be 60 µM; in the assay with HLA-A*24:02 it was 0.902 µM; in the assay with HLA-A*02:01 [21], 0.601 µM; with HLA-B*15:01 [22] it was 10.8 µM.

Take GTLTKGVFK: the figures for the Kd with HLA-A*31:01 [1] (source organism: Bacillus anthracis str. A0488), with HLA-A*03:01 (setting [23]) and with HLA-A*11:01 [2] (setting [23]) were 0.0154 µM, 0.0549 µM and 0.012 µM, respectively.
